Test results: patent publication US20240101654A1

Target: recombinant full-length human Tau (Tau-441, (2N4R)) (human) (UniProt P10636)
Assay: indirect ELISA, plate coated with recombinant full-length human Tau at 3 µg/ml

EC50: 15 nM
B1: NI-502.4P3 (antibody, V domains shown)
VH: EVQLVQSGAEVKKPGESLKISCKVSGYDFSKYWIGWVRQMPGKGLEWMGLIYPGDSDTRYSPSLEGQVSISADKSISAAYLQFSSLKASDSAMYYCVRKGYSAYLGGWFDPWGQGTLVTVSS
VL: DIQLTQSPDSLAASLGERVTINCRSSQNIFYNSNNKNFLAWYQQKAGQSPKLLIYWASTRESGVPDRFSGSGSGTDFTLTISGLQAGDVAVYFCQQYFTDAPTFGGGTKVEIK
